Laboratory results as given in PMC2651629, “Structure of the Archaeal Pab87 Peptidase Reveals a Novel Self-Compartmentalizing Protease Family” (PLoS ONE, 2009).

How the values were obtained:
[1] = molecular target: Pyrococcus abyssi Pab87 protein (Pyrococcus abyssi); assay: AUC; sedimentation velocity, 20°C, 40,000 rpm, 10 µM protein in 150 mM Tris pH 8.5, 350 mM NaCl; c(s) and c(M) distributions (Sedfit)
[2] = molecular target: Pyrococcus abyssi Pab87 protein (Pyrococcus abyssi); assay: cryo-EM structure; 0.5 mg/mL Pab87 in 50 mM Tris-HCl pH 8.5, 350 mM NaCl; single-particle reconstruction at around 14 Å, fitted with the X-ray structure
[3] = molecular target: Pyrococcus abyssi Pab87 protein (Pyrococcus abyssi); assay: crystal structure; Pab87 co-crystallised with Lu-HPDO3A (200 mM), 20 mM CaCl2, 30% MPD, 100 mM sodium acetate pH 4.6, 18°C; space group P1, eight molecules per asymmetric unit; 2.2 Å

Measured: stoichiometry N

Pyrococcus abyssi Pab87 protein (enzyme)
8: all assays above
